The supplement of paper PMC9170038

System: K4 kissing-loop RNA reporter
Experiment: apparent KD of K4 kissing-loop reporter; higher = weaker reporter binding
Conditions: Eterna round: R107
Procedure: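 RNA-MaP round R107: designed RNA switches with theophylline, tryptophan, arginine or FMN aptamers are transcribed on-chip within common flanks. They are titrated with a labelled K4 kissing-loop RNA reporter in RNA-MaP buffer (100 mM Tris pH 7.5, 80 mM KCl, 4 mM MgCl2), without ligand or with the indicated ligand. Median apparent KD per design.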

[1] = input ligand: theophylline 20 uM
[2] = input ligand: tryptophan 2.4 mM
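Note: bound reporter read as fluorescence of individual clusters on recovered sequencing chips by microscopy, with normalized cluster intensities fitted with a binding model.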

Sequence	apparent KD of K4 kissing-loop reporter (input ligand: FMN 200 uM) [nM]	apparent KD of K4 kissing-loop reporter (input ligand: arginine 13.2 mM) [nM]	apparent KD of K4 kissing-loop reporter (input ligand: none) [nM]	apparent KD of K4 kissing-loop reporter [1] [nM]	apparent KD of K4 kissing-loop reporter [2] [nM]
GCCGUAGAUUGAAGGAGCGUGGACCUAUCGCUUGAACAGUGAUGUUGUUUAUCUAGGAAGCCGCAGGUAGGUCGCAAUCUACGGC	331	292	420	337	382
GCCUAGGCUCGAAAGAGCCUAGGCUGGGCUCAGGAUAUCCGGAAACGGAGAAGGGAGGGACUAGUGAUGUUAGGGAUUCCCUAUG	461	264	290	251	203
GCCUGUGCACGAAGGAGCGCCGUGACAGGUUACUGCCUUGGGCAGUGAUGUUGCUCAAUCUGGCAGGUAGGUCGCGUGCACAGGC	132	145	166	138	102
GCCUUUGUACAGUCCGUUUGUCAUGUGGAUACCAGCAGGAUAGCUUGCCCUUGGCAGCCAUCCAUUUAAUGUAGUGAUGUUACGC [theeternabot_exclusion_KL_Theo_A_13]	398	440	477	412	338
GCGAAGAAGGUUGAUACCAGUCUUGCGUGUCAAGCGCCAGUGAUGUUGGGCCUGUAGAUCGACCCUUGGCAGCAACCUCGAAAUG [theeternabot_sameState_KL_Theo_B_28]	836	563	844	748	655
GCGCGCGGCGGAGGAUAUAGCAGGUGAUCCGAGAAAGUGAGUGAUGUUUACGGAGAUGAUGAUAUGUUAGAAGGCCGCCGCGCGC [abcdefghijklmnopqrstuv]	515	416	437	425	558
GCGCGGCCCAGUGAUGUUGGGCCUCGGAGACGAGGACCGGUACGGCCGCCACUCGUCCGCGCAGCUGAGGCAAAAGCCUCGGCAA [Omei KL Tryp A SS B v6]	207	190	228	187	107
GCGCGUCAUGUCAGCGGUGACACUGUCGAUACCAGCGCCGUAAGGCGCCCUUGGCAGCGACGUGCUGGAGUGAUGUUCCAGCGUC [#2 Exclusion - Theophylline A Attempt #20 (HarryS)]	178	110	149	126	141
GCGGCGGGCCAAGGAUAUAUAUUGGAGUGAUGUUGUUCAUUUAUUUGAGCUAGUGAUGUUGGUCAAAUAGAAGGUGGCCCGCCGC [whbob_Ex_FMNB__2th217]	56.5	34.6	59.3	44.8	62
GCGGUGUUAUGCCCGAGGGUAUAGUUGCCAAAGGAUAUGAUUGUUGUCAGAAGGUUGCGCUUGAUCAGUGAUGUUGGUCUCCAAC [theeternabot_sameState_KL_FMN_A_12]	398	275	373	342	337
GCGUGCCAUGCAGGAUAUAGUUGUUCGAGUGAUGUUCGAGCCUUGCUAAGUUCGGAGCAUCAGCUUCUAGAAGGGCAUGGCACGC	156	205	618	241	347
GCUAGGCAUGCAGGAUAUCGUGGAGUGAUGUUCCGUUGGCUGCUAGCGGAAAACGCUAGCAGCCUACGAGAAGGGCAUGCCUAGC	192	356	425	410	368
GCUAUGGUAGGAAGGAGCGCUACUUUGUUUUUACGAGUGAUGUUCGGUAGCAGAGUGUUAAAGCAGGUAGGUCGCCUACUAUAGC [Arginine B K4 19]	225	244	244	307	280
GCUCGGGAGUGAUGUUCCAAGUGGUGUUAACGAGGACCGGUACGGCCGCCACUCGAUACGGCCGGACCGUAGGAUAAACUGGAGC [Same State - Tryptophan A (Freestyle 12)]	149	110	125	185	144
GGACGACAGGCGGCCGCCACUCACAGCAGCCAGCGAGUGAUGUUCGUAGCGGAGUGAUGUUCCGAGAGGACCGGGUCUGCAGUCC [Same State Tryptophan B GF 17]	246	178	224	168	223
GGACGACAGUCGGCCGCCACUCACAGCCGCCAGUGAUGUUGGAUUGUAGCGGAGUGAUGUUUCGCGAGGACCGGGACUGCAGUCC [Same State Tryptophan B GF 15]	417	380	455	413	460
GGAGGCCAGGCCUGCGAAGUGAUGUUUUGACGAGGACCGGUACGGCCGCCACUCGAAUGUUCUAUCAUCGUACGAACUUCUGCGU [theeternabot_exclusion_KL_Trp_A_26]	593	415	496	527	394
GGAGGUUGGUGCGAUACCAGACCUGCAGUGAUGUUGCGCCAAAGUGAGUGAUGUUCACCGGUCCCUUGGCAGCGCGUCCCUUUAG [Same State Theophylline B GF 15]	848	729	1190	707	860
GGAGUUACCUGGGAUACCAGCCGGAGGCCCAGAGCUCGGAGUGAUGUUCUGGGAUGUUUCGGCCCUUGGCAGCUCUGGGUCUCCC [#2 Exclusion - Theophylline B Attempt #6 (HarryS)]	1520	512	535	505	521
GGAUAGGACAGAGGAUAUCCAGUGAUGUUGGAGAAUUCUCCUUCAACAUGUCACAAAAGUGGCAUGGGAGAAGGCUGUCCUAUCG [Mod of Eli's FmnBX 29 v2]	388	120	122	99.7	108
GGAUAGGACAGAGGAUAUCUCUGAGGCAAGAAAACUUGUCUCAAAAGAGAUGACUCAGUGAUGUUGAGAGAAGGCUGUCCUAUCG [FmnBX 8 - #SwitchBubble #StaticStem]	256	143	144	147	153
GGAUAGGACAGAGGAUAUGGUAGUGAUGUUACCAAACUGGUUAUUAAUGUCAGAAAACUGGCAAAUCCAGAAGGCUGUCCUAUCG [KL-XFMN-B13]	180	63.8	75.7	60.5	62.9

Sequence	apparent KD of K4 kissing-loop reporter (input ligand: FMN 200 uM) [nM]	apparent KD of K4 kissing-loop reporter (input ligand: arginine 13.2 mM) [nM]	apparent KD of K4 kissing-loop reporter (input ligand: none) [nM]	apparent KD of K4 kissing-loop reporter [1] [nM]	apparent KD of K4 kissing-loop reporter [2] [nM]
GGAUAGGACAGAGGAUAUGGUAGUGAUGUUACCAACAGCCUACUGUCAAUAAAGACGGUUGGCUGACCAGAAGGCUGUCCUAUCG [Mod of Eli's FmnBX 26 v1]	564	132	145	148	142
GGAUAGGACUGAGGAUAUGGGCUAGGCAAGAAUAACUUGUCUAGCAAAUCCAUGAGGAGUGAUGUUCCAGAAGGCGGUCCUAUCG [FmnBX 1 U10+G76]	601	127	131	173	231
GGAUAGGAUAGAGGAUAUGGUUUAUGCAAGAAUAACUUAUCGUGUAAAUCCAUAGGGAGUGAUGUUCCAGAAGGCUGUCCUAUCG [MatMod 12 - Jieux - Exclusion - FMN B]	335	201	239	246	173
GGAUAUGUAACAGAUACCAGCCGACGACAGUCACUGUGUCAUGUAGUGAUGUUACAAUCUGGCCCUUGGCAGCUGUCUCUGGUUU [theeternabot_exclusion_KL_Theo_B_27]	310	214	278	250	250
GGAUGGUAGGCGGCCGCCACUAAAAGUGAACACAUACAAGCCAGUGAUGUUGGUAUGAUGGACUAUAGGACCGGGCCUAGAUAGA [Exclusion - Tryptophan B (Freestyle 6)]	468	410	522	454	466
GGCACUUUUGGUAGACACCAUCUACCUCUAUAGGAUAUGCCGAAAGGCAGAAGGAUAGACCUACAGAGUGAUGUUCUGCGUGCCU	686	801	1230	946	849
GGCAGUGAUGUUGCCUAAGCAAUGCAUGCGGAGGAUAUUCGUUUGGGAAGAAGGCCGCAGCGUUCUCUCGAGUGAUGUUCGAGUA [Same State FMN A GF 20]	155	141	153	158	126
GGCAUCCAUGGACAUAGUGAUGUUAUGUGCCGAGGACCGGUACGGCCGCCACUCGACCAUGGAUGCCGCAAUCGGAAACGAUUGC	1090	915	1610	888	115
GGCCGGCCGGGAAGGAGCGGGAGUGAUGUUUUCGCAAAGAAAGAUAUAAAAGAAACGAAAUCCCAGGUAGGUCGCCCGGCCGGUU	64.4	113	91.3	160	66.4
GGCGCUGUCUGUGCCGCCCUCCUCGUCCCUCGAGGACCGGUACGGCCGCCACUCGAGUGAUGUUCGGGUAGCCCUCCCUGCCAGC [BDazzled - #22 Exc. Tryptophan A]	462	320	492	382	233
GGCGGCCGCGCGAAAGCGCGGCCGGCCGAUACCAGCGCGACGGCGCGCCCUUGGCAGCGGCGCCGAGUGAUGUUCGGCCUGCCGU [#2 Same State - Theophylline A Attempt #13 (HarryS)]	126	122	117	145	116
GGGAGAAGUGGUGUUGAUUAAGAAGCGGAAGGAGCGCCGAAGAAGGCAGGUAGGUCGCCGAAAUAUAGUGAUGUUAUAUAAAGGG [ExArg.B]	155	184	137	218	152
GGGAGUAGUGCGGCCGCCACUGAGAAAGAAGAAGAAUAUAGUGAUGUUAUAUAGGAAAGGAAGAACAGGACCGGGCAUUAGAGGG [SSTRyptB.C]	163	171	147	243	131
GGGAGUUAUUACGGCAGGGUCGAUACGGAUACCAGUAGGCGGCUCUACCCUUGGCAGCCGUAACAUGGUAGUGAUGUUAUCAGUC [theeternabot_exclusion_KL_Theo_A_24]	527	420	518	468	405
GGGAUGUAGGGAAGGAGCGCUUUGCGAAUAUUAAUGAGUGAUGUUCGUAGAUAUUUGUAAUGGCAGGUAGGUCGCCCUAUAUCCC [Skye_SS_AB]	197	131	166	151	157
GGGCCUAUUGAUGCUGGAGCAAUUCUGGAAGGAGCGCUCAAAGGAGCAGGUAGGUCGCCAGUAUGCAAGGGCAGUGAUGUUGCCC [Ersoarxe]	238	164	233	145	189
GGGCGUGGCGCGGCCGCCACUGGGCCUGGGCGCUCGCUGAGUGAUGUUCGUCGGCGGCUGGGUCGUAGGACCGGGUGCUGGUUGG [BDazzled - #7 SS Tryptophan B]	529	309	438	424	302
GGGUCUGUCGGAAGGAGCGCACUAUGGAGUGAUGUUCCAUGACCGCACAGCUUGCGGUCAGUGCAGGUAGGUCGCCGAUAGCUUU [Usquso]	277	169	197	286	164
GGGUGGCAGGCGGCCGCCACUCUGAGCACCCACUGAGUGAUGUUCGUGGCGUAAGACUGUUCGUAGAGGACCGGGUUUGUUGUUC [Same State Tryptophan B GF 23]	203	143	214	306	205
GGUAGCAUGGCGGCCGCCACUACCUAGUGAUGUUAGGCUGUGGACAUAGGAGCAAGACAAAUAUGUAGGACCGGGCCAUGCUACC	126	92.8	111	124	131
GGUAGCAUGGCGGCCGCCACUGGAGAGUGAUGUUCUCCACUAGGUUACAACGCCGGACAGUCCACCAGGACCGGGCCAUGCUACC	140	106	131	129	436
